Read-outs that look alike come from different tables or passages of the source. *1 amine or outer side, *2 acyl side, *3 side chain or, on linkers, in order; H or OH if unused. Where a SMILES comes first, the peptide text is derived from it. [ ]: non-standard residue; d: D form. The star is where a group is joined. ξ: configuration not given here. Exatecan = CC[C@@]1(O)C(=O)OCc2c1cc1n(c2=O)Cc2c-1nc1cc(F)c(C)c3c1c2[C@@H](N*)CC3; Dolaproine = CO[C@@H]([C@@H]1CCCN1)[C@@H](C)C(=O)O; X2 = CO[C@@H]([C@H]1CCCN1[*:1])[C@@H](C)C(=O)[*:2]; ξDil = CC[C@H](C)C([C@@H](CC(=O)[*:2])OC)N(C)[*:1]; Hexanoyl(6-maleimido) = O=C1C=CC(=O)N1CCCCCC(=O)*; Propanoyl(3-maleimido) = O=C1C=CC(=O)N1CCC(=O)*; Dil = CC[C@H](C)[C@H](NC)[C@@H](CC(=O)O)OC; PABC = O=C(OCc1ccc(N[*:1])cc1)[*:2]; NHCH2OCH2CO = O=C(COCN[*:1])[*:2]; X3 = C[C@@H](N*)[C@@H](O)c1ccccc1; NMeV = CN[C@H](C(=O)O)C(C)C
Key:
[1] = format: physicochemical; details: ADC with Her2 antibody, RP-HPLC-MS
Method: (§1) A drug-antibody conjugating ratio (also known as drug-antibody ratio, abbreviated as DAR) of the antibody-drug conjugate was tested using reversed-phase high-performance liquid chromatography-mass chromatography (RP-HPLC-MS). The ADC sample was diluted with 50 mmol/L Tris buffer (pH 8.0) to 1 mg/ml. A fresh dithiothreitol (DTT) stock solution was added to achieve a final DTT concentration of 50 mmol/L. Incubation was performed at 37° C. for 30 minutes. A PLRP-S chromatographic column (1000 Å pores, 2.1×50 mm, 5) μm) was used, and the column temperature was 70° C. The flow rate was 0.25 mL/min. […] of sample was injected; the mobile phase A was an aqueous solution of 0.1% formic acid (V/V) and 0.025% trifluoroacetic acid (V/V), and the mobile phase B was an acetonitrile solution of 0.1% formic acid (V/V) and 0.025% trifluoroacetic acid (V/V); the running time was 0-3 minutes, where 27% of mobile phase B ran for 3 minutes, and the mobile phase B ran from 27% to 49% within 3-25 minutes, from 49% to 95% within 25-26 minutes, at 95% within […], from 95% to 27% within 30-31.5 minutes, and at 27% for 31.5-45 minutes. […] Mass spectrometry drying gas was at a temperature of 350° C. and a flow rate of 7.0 L/min, the pressure of an atomizer was 40 psi, capillary voltage was positive 3000V and negative 3000V, and the mass range was 500-1600 m/z. The molecular weight of each mass spectrometry peak (ranging from 20000 to 70000) was calculated by deconvolution and compared with light and heavy chain molecular weights of un-conjugated antibodies to calculate a drug load at each peak, so as to determine the load of a corresponding ultraviolet peak. Area percentages of heavy and light chain ultraviolet peaks were calculated through integration, and a weighted average DAR of the antibody-drug conjugate was calculated by combining the area percentages with the drug load distribution of each peak.

[2] = Polymer (high molecular component) content of antibody-drug conjugates by SE-HPLC; format: physicochemical; details: ADC with Her2 antibody
Method: (§2) Polymers (high molecular components) of the antibody-drug conjugates were tested using molecular exclusion high-performance liquid chromatography (SE-HPLC). A Biocore SEC chromatographic column (7.8×300 mm, […]) was used, and the mobile phase was 50 mM phosphate containing 300 mM sodium chloride (pH 6.8), with a flow rate of 0.5 mL/min. Samples of […] and 10 μl were injected. […] The polymer content of an antibody-drug conjugate was calculated using an area normalization method.

[3] = Naked antibody content of antibody-drug conjugates by hydrophobic interaction chromatography (HIC); format: physicochemical; details: ADC with Her2 antibody
Method: The content of naked antibodies in the antibody-drug conjugate was tested using hydrophobic interaction chromatography (HIC). A Biocore HIC-Butyl chromatographic column (4.6×150 mm, 5 μm) was used. The mobile phase A was a 100 mM phosphate aqueous solution containing 2 M ammonium sulfate (pH 7.0), and the mobile phase B was a 100 mM phosphate aqueous solution (pH 7.0): isopropanol=80:20 (V/V). Samples of 50 μg and 10 μl were injected. The mobile phase A at the flow rate of 1 mL/min ran at 100% for 3 minutes. Within 3-25 minutes, the mobile phase B ran from […] to 100%, while the mobile phase B decreased to 0% at 25.1 and ran to 30 minutes. […] The naked antibody content of the antibody-drug conjugate was calculated using an area normalization method based on the retention time of a naked antibody peak located by the antibody of the antibody-drug conjugate.

[4] = Stability (placement) test of ADCs at 40° C. in dark for 14 days, DAR and polymer content; format: physicochemical
Method: as §2, §1
Stability testing method: The stability of the obtained ADCs was tested for 14 days. The ADCs were placed at 40° C. in dark. Sampling points were days 0, 7, and 14. The polymer content and DAR value of samples at different sampling points were tested according to the method in Experimental Example 1.

Row | Compound | DAR [1] | Polymer content (%) [2] | Naked antibody content (%) [3] | DAR ([4]; Day 0, 40° C. in dark) | Polymer content (%) ([4]; Day 0, 40° C. in dark) | DAR ([4]; Day 7, 40° C. in dark) | Polymer content (%) ([4]; Day 7, 40° C. in dark) | DAR ([4]; Day 14, 40° C. in dark) | Polymer content (%) ([4]; Day 14, 40° C. in dark)
1 | C=C1C[C@@H]2CC[C@@]34C[C@H]5OC6C(O[C@H]7CC[C@H](CC(=O)C[C@@H]8[C@@H](OC)[C@@H](C[C@H](O)CNC(=O)CNC(=O)[C@H](Cc9ccccc9)NC(=O)CNC(=O)CNC(=O)CN9CCOCCN(C(=O)CCN%10C(=O)C=CC%10=O)CCOCC9)O[C@H]8C[C@H]8O[C@@H](CC[C@@H]1O2)C[C@@H](C)C8=C)O[C@@H]7[C@@H]6O3)[C@H]5O4 [Example 21] | 4.08 | 0.87% | 2.56% | 4.08 | 0.87% | 4.06 | 0.90% | 4.10 | 0.88%
2 | C=C1C[C@@H]2CC[C@@]34C[C@H]5OC6C(O[C@H]7CC[C@H](CC(=O)C[C@@H]8[C@@H](OC)[C@@H](C[C@H](O)CNC(=O)CNC(=O)[C@H](Cc9ccccc9)NC(=O)CNC(=O)CNC(=O)CN9CCOCCOCCN(C(=O)CCCC%10C(=O)C=CC%10=O)CCOCCOCC9)O[C@H]8C[C@H]8O[C@@H](CC[C@@H]1O2)C[C@@H](C)C8=C)O[C@@H]7[C@@H]6O3)[C@H]5O4 [Example 41] | 3.84 | 1.52% | 5.05% | 3.84 | 1.52% | 3.81 | 1.53% | 3.81 | 1.59%
3 | C=C1C[C@@H]2CC[C@@]34C[C@H]5OC6C(O[C@H]7CC[C@H](CC(=O)C[C@@H]8[C@@H](OC)[C@@H](C[C@H](O)CNC(=O)CNC(=O)[C@H](Cc9ccccc9)NC(=O)CNC(=O)CNC(=O)CCOCCOCCN(CCOCCOCCC(=O)NCC(=O)NCC(=O)N[C@@H](Cc9ccccc9)C(=O)NCC(=O)NCOCC(=O)N[C@H]9CCc%10c(C)c(F)cc%11nc%12c(c9c%10%11)Cn9c-%12cc%10c(c9=O)COC(=O)[C@]%10(O)CC)C(=O)CCCCCN9C(=O)C=CC9=O)O[C@H]8C[C@H]8O[C@@H](CC[C@@H]1O2)C[C@@H](C)C8=C)O[C@@H]7[C@@H]6O3)[C@H]5O4 [Comparative Example 3, reference compound] | 0.81 | 50.73% | 60.77% | – | – | – | – | – | –
4 | C=C1C[C@@H]2CC[C@@]34C[C@H]5OC6C(O[C@H]7CC[C@H](CC(=O)C[C@@H]8[C@@H](OC)[C@@H](C[C@H](O)CNC(=O)CNC(=O)[C@H](Cc9ccccc9)NC(=O)CNC(=O)CNC(=O)CCOCCOCCN(CCOCCOCCC(=O)NCC(=O)NCC(=O)N[C@@H](Cc9ccccc9)C(=O)NCC(=O)NCOCC(=O)N[C@H]9CCc%10c(C)c(F)cc%11nc%12c(c9c%10%11)Cn9c-%12cc%10c(c9=O)COC(=O)[C@]%10(O)CC)C9CCC(NC(=O)CCCCCN%10C(=O)C=CC%10=O)CC9)O[C@H]8C[C@H]8O[C@@H](CC[C@@H]1O2)C[C@@H](C)C8=C)O[C@@H]7[C@@H]6O3)[C@H]5O4 (stereo partly shown) [Comparative Example 9, reference compound] | 0.91 | 70.65% | 57.78% | – | – | – | – | – | –
5 | CC[C@H](C)[C@@H]([C@@H](CC(=O)N1CCC[C@H]1[C@H](OC)[C@@H](C)C(=O)N[C@H](C)[C@@H](O)c1ccccc1)OC)N(C)C(=O)[C@@H](NC(=O)[C@H](C(C)C)N(C)C(=O)OCc1ccc(NC(=O)CNC(=O)[C@H](Cc2ccccc2)NC(=O)CNC(=O)CNC(=O)CCCCCN2C(=O)C=CC2=O)cc1)C(C)C [Comparative Example 1, reference compound] ({Hexanoyl(6-maleimido)}-GGFG[PABC][NMeV]V[Dil][Dolaproine]-X3) | 1.03 | 38.31% | 23.50% | – | – | – | – | – | –
6 | CC[C@@]1(O)C(=O)OCc2c1cc1n(c2=O)Cc2c-1nc1cc(F)c(C)c3c1c2[C@@H](NC(=O)COCNC(=O)CNC(=O)[C@H](Cc1ccccc1)NC(=O)CNC(=O)CNC(=O)CCCCCN1C(=O)C=CC1=O)CC3 [Comparative Example 14, reference compound] ({Hexanoyl(6-maleimido)}-GGFG[NHCH2OCH2CO]-Exatecan) | 8.00 | – | – | – | – | – | – | – | –
7 | CC[C@H](C)C([C@@H](CC(=O)N1CCC[C@@H]1[C@H](OC)[C@@H](C)C(=O)N[C@H](C)[C@@H](O)c1ccccc1)OC)N(C)C(=O)[C@@H](NC(=O)[C@H](C(C)C)N(C)C(=O)OCc1ccc(NC(=O)CNC(=O)[C@H](Cc2ccccc2)NC(=O)CNC(=O)CNC(=O)CCN2C(=O)C=CC2=O)cc1)C(C)C (stereo partly shown) [Comparative Example 8, reference compound] ({Propanoyl(3-maleimido)}-GGFG[PABC][NMeV]V[ξDil][X2]-X3) | 2.57 | 12.37% | 10.15% | – | – | – | – | – | –
8 | CCc1c2c(nc3ccc(O)cc13)-c1cc3c(c(=O)n1C2)COC(=O)[C@@]3(CC)OC(=O)N(C)CCN(C)C(=O)COCNC(=O)CNC(=O)[C@H](Cc1ccccc1)NC(=O)CNC(=O)CNC(=O)CCN1C(=O)C=CC1=O [Comparative Example 6, reference compound] | 2.76 | 13.74% | 9.06% | – | – | – | – | – | –
9 | C=C1C[C@@H]2CC[C@@]34C[C@H]5OC6C(O[C@H]7CC[C@H](CC(=O)C[C@@H]8[C@@H](OC)[C@@H](C[C@H](O)CNC(=O)CNC(=O)[C@H](Cc9ccccc9)NC(=O)CNC(=O)CNC(=O)CCN9C(=O)C=CC9=O)O[C@H]8C[C@H]8O[C@@H](CC[C@@H]1O2)C[C@@H](C)C8=C)O[C@@H]7[C@@H]6O3)[C@H]5O4 [Comparative Example 12, reference compound] | 2.67 | 13.18% | 7.00% | – | – | – | – | – | –
10 | C=C1C[C@@H]2CC[C@@]34C[C@H]5OC6C(O[C@H]7CC[C@H](CC(=O)C[C@@H]8[C@@H](OC)[C@@H](CC(O)CNC(=O)CNC(=O)[C@H](Cc9ccccc9)NC(=O)CNC(=O)CNC(=O)CCOCCOCCC(CCOCCOCCC(=O)NCC(=O)NCC(=O)N[C@@H](Cc9ccccc9)C(=O)NCC(=O)NCOCC(=O)N[C@H]9CCc%10c(C)c(F)cc%11nc%12c(c9c%10%11)Cn9c-%12cc%10c(c9=O)COC(=O)[C@]%10(O)CC)C9CCC(NC(=O)CCOCCOCCOCCOCCN%10C(=O)C=CC%10=O)CC9)O[C@H]8C[C@H]8O[C@@H](CC[C@@H]1O2)C[C@@H](C)C8=C)O[C@@H]7[C@@H]6O3)[C@H]5O4 (stereo partly shown) [Comparative Example 7, reference compound] | 0.86 | 60.31% | 53.82% | – | – | – | – | – | –
11 | C=C1C[C@@H]2CC[C@@]34C[C@H]5OC6C(O[C@H]7CC[C@H](CC(=O)C[C@@H]8[C@@H](OC)[C@@H](C[C@H](O)CNC(=O)CNC(=O)[C@H](Cc9ccccc9)NC(=O)CNC(=O)CNC(=O)CCOCCOCCN(CCOCCOCCC(=O)NCC(=O)NCC(=O)N[C@@H](Cc9ccccc9)C(=O)NCC(=O)NCOCC(=O)N[C@H]9CCc%10c(C)c(F)cc%11nc%12c(c9c%10%11)Cn9c-%12cc%10c(c9=O)COC(=O)[C@]%10(O)CC)C9CCC(C(=O)CCOCCOCCN%10C(=O)C=CC%10=O)CC9)O[C@H]8C[C@H]8O[C@@H](CC[C@@H]1O2)C[C@@H](C)C8=C)O[C@@H]7[C@@H]6O3)[C@H]5O4 (stereo partly shown) [Comparative Example 13, reference compound] | 1.01 | 78.50% | 60.37% | – | – | – | – | – | –

— patent US20240293570A1 (priority 2021, published 2024)
